Holding throughout (assay): pull-down; 6.6 uM I16C-Alexa546-ARR1 mixed with 0.1 uM BBS5L-GST, BBS5-GST or GST, overnight at 4°C; immunoprecipitated with anti-GST antibody on magnetic beads; fluorescence of the captured arrestin1 measured
The target in experiment [1] is BBS5L-GST (splice variant of BBS5 in fusion with glutathione-S-transferase) (mouse).
For experiment [2], the target named is BBS5L-GST phosphorylated by protein kinase C (mouse).
Experiment [3] concerns the target T1, I16C-Alexa546-ARR1 (I16C-substituted bovine arrestin1 labeled with AlexaFluor-546) (bovine, UniProt P08168 1-404, I16C, AlexaFluor-546 on the reactive sulfhydryl group generated by I16C).
T1 construct: arrestin1 (S-arrestin), bovine, with the substitution I16C; also called ARR1-Alexa546; fluorescently labeled arrestin1
The conditions noted are these: both partners purified.

T1 sequence (P08168 whole entry I16C): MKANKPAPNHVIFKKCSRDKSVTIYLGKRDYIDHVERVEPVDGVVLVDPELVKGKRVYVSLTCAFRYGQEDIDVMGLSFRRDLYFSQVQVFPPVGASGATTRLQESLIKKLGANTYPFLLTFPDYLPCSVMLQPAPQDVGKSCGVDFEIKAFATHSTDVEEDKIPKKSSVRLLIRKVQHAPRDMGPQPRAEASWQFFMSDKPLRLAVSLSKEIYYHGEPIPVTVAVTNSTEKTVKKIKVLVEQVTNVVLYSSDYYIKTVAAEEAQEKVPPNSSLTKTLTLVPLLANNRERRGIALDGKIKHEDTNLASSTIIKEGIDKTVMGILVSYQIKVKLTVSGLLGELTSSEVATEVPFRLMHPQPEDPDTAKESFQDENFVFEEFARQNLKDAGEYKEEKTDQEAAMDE

Take “I16C-Alexa546-ARR1 (I16C-substituted bovine arrestin1 labeled with AlexaFluor-546) (from UniProt P08168 1-404) (natural protein)”: the amount of arrestin1 bound relative to BBS5 in experiment [1] is 0.5 fold of BBS5. This molecule showed a percent reduction of arrestin1 pull-down against unphosphorylated BBS5L in experiment [2] of 31%.

B1: BBS5-GST (Bardet-Biedl Syndrome 5 protein in fusion with glutathione-S-transferase) (natural protein, mouse, UniProt Q9CZQ9 1-341, looked up)
chain: MSVLDVLWEDRDVRFDVSSQQMKTRPGEVLIDCLDSIEDTKGNNGDRGRLLVTNLRIIWHSLALPRVNLSIGYNCILNITTRTANSKLRGQTEALYILTKCNTTRFEFIFTNLVPGSPRLFTSVIAVHRAYETSKMYRDFKLRSAVIQNKQLRLLPQEHVYDKINGVWNLSSDQGNLGTFFITNVRIVWHANMNDSFNVSIPYLQIRSIKIRDSKFGLALVIESSQQSGGYVLGFKIDPVEKLQESVKEINSLHKVYSASPIFGVNYEMEEKPQPLEALTVEQIQDDVEIDSDDHTDAFVAYFADGNKQQDREPVFSEELGLAIEKLKDGFTLQGLWEVMS
notes: BBS5, mouse; open-reading frame amplified from murine retinal cDNA; cDNA for His-tagged BBS5 was cloned into pGEX-4T-1 at the EcoRI site, fused to the C-terminus of GST; not shown: GST, N-terminal, kept
Consider B1, for which the binding result in experiment [3] is listed as “binds”.
